# Measured values published in FireProtDB (doi:10.1021/bi000176d).
# Several values for one entry are separate records, joined by “and”; a condition that tells them apart may be missing. Identical values can stand only once.
# B1: Glutathione S-transferase A1 wild type, P08263 (protein)
# chain: MAEKPKLHYFNARGRMESTRWLLAAAGVEFEEKFIKSAEDLDKLRNDGYLMFQQVPMVEIDGMKLVQTRAILNYIASKYNLYGKDIKERALIDMYIEGIADLGEMILLLPVCPPEEKDAKLALIKEKIKNRYFPAFEKVLKSHGQDYLVGNKLSRADIHLVELLYYVEELDSSLISSFPLLKALKTRISNLPTVKKFLQPGSPRKPPMDEKSLEEARKIFRF
# Conditions: Homo sapiens, pH 7, 25 °C, Sodium phosphate 20 mM, NaCl 100 mM, transition: 3, reversible: yes, whole UniProt chain shown
protein,measurement,setting,value
B1,denaturant midpoint (higher = more stable),"GdnHCl, Absorbance",1.5 M and 1.3 M and 2.3 M
same,unfolding free energy,"GdnHCl, Absorbance",8.96 kcal/mol and 10.2 kcal/mol and 11.8 kcal/mol
same,denaturant m value,"GdnHCl, CD",4.8 kcal/mol/M
same,denaturant midpoint (higher = more stable),"GdnHCl, CD",2.2 M
same,unfolding free energy,"GdnHCl, CD",17 kcal/mol
same,denaturant midpoint (higher = more stable),"GdnHCl, Fluorescence",1.8 M and 1.1 M and 2.4 M
same,denaturant m value,"Urea, Absorbance",2.12 kcal/mol/M and 2.31 kcal/mol/M
same,denaturant midpoint (higher = more stable),"Urea, Absorbance",4.8 M and 4.1 M
same,unfolding free energy,"Urea, Absorbance",14 kcal/mol and 12.7 kcal/mol
same,denaturant m value,"Urea, CD",3.38 kcal/mol/M and 3.67 kcal/mol/M
same,denaturant midpoint (higher = more stable),"Urea, CD",5.3 M and 4.8 M
same,unfolding free energy,"Urea, CD",19.6 kcal/mol and 17.1 kcal/mol
